{
  "source": "patent US20240239915A1",
  "about": "(Zymeworks, published 2024)",
  "binders": {"B1": {"name": "L234A/L235A/D265G (LALA-DG) variant of IgG1 WT of the anti-EGFR antibody panitumumab (antibody)", "heavy": "QVQLQESGPGLVKPSETLSLTCTVSGGSVSSGDYYWTWIRQSPGKGLEWIGHIYYSGNTNYNPSLKSRLTISIDTSKTQFSLKLSSVTAADTAIYYCVRDRVTGAFDIWGQGTMVTVSSASTKGPSVFPLAPSSKSTSGGTAALGCLVKDYFPEPVTVSWNSGALTSGVHTFPAVLQSSGLYSLSSVVTVPSSSLGTQTYICNVNHKPSNTKVDKRVEPKSCDKTHTCPPCPAPEAAGGPSVFLFPPKPKDTLMISRTPEVTCVVVGVSHEDPEVKFNWYVDGVEVHNAKTKPREEQYNSTYRVVSVLTVLHQDWLNGKEYKCKVSNKALPAPIEKTISKAKGQPREPQVYTLPPSREEMTKNQVSLTCLVKGFYPSDIAVEWESNGQPENNYKTTPPVLDSDGSFFLYSKLTVDKSRWQQGNVFSCSVMHEALHNHYTQKSLSLSPGK", "light": "not shown", "notes": "Mutations in both CH2 domains; positions are EU numbers"}},
  "key": {"[1]": {"molecular_target": "T1, Recombinant Human Fc gamma RI/CD64 Protein, CF (R&D Systems), His-tagged (human, UniProt P12314 16-288)", "T1 construct": "also called human FcγRI; hFcγRI", "T1 sequence (P12314 other isoform, or with tags, fused parts or gaps)": "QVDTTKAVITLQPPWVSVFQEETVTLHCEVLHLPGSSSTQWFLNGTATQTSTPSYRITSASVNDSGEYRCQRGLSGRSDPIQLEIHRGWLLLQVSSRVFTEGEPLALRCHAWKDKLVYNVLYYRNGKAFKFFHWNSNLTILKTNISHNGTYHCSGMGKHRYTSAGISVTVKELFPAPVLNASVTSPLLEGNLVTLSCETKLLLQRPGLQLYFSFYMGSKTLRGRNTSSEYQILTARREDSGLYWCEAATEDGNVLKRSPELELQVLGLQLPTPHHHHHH", "assay": "SPR (Biacore T200), RU at 4.7 µM antibody"}, "[2]": {"molecular_target": "T2, Recombinant Human Fc gamma RIIA/CD32a (H167) Protein (R&D Systems), His-tagged (human, UniProt P12318 34-218)", "T2 construct": "also called human FcγRIIa (H167); hFcγRIIa (H167)", "T2 sequence": "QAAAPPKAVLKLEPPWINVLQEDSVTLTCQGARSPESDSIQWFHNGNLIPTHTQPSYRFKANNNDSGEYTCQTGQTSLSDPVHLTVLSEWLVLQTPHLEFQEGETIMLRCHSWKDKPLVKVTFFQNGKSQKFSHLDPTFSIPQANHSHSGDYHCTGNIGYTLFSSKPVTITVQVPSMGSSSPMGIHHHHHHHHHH", "assay": "SPR (Biacore T200), RU at 4.7 µM antibody"}, "[3]": {"molecular_target": "T2, Recombinant Human Fc gamma RIIA/CD32a …", "assay": "SPR (Biacore T200); receptor immobilized directly on CM5 chip, antibody as analyte at 4.7 µM"}, "[4]": {"molecular_target": "T3, Recombinant Human Fc gamma RIIB/C (CD32b/c) Protein (R&D Systems), His-tagged (human, UniProt P31994 46-217)", "T3 construct": "also called human FcγRIIb/c; hFcγRIIb/c", "T3 sequence": "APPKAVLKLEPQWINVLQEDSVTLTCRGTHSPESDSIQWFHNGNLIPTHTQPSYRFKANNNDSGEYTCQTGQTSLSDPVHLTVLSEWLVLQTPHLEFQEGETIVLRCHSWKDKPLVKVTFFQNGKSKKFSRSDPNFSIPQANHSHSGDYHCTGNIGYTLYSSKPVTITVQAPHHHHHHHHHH", "assay": "SPR (Biacore T200); receptor immobilized directly on CM5 chip, antibody as analyte at 4.7 µM"}, "[5]": {"molecular_target": "T4, Recombinant Human Fc gamma RIIIA/CD16a protein (R&D Systems), His-tagged (human, UniProt P08637 17-208)", "T4 construct": "also called human FcγRIIIa; hFcγRIIIa", "T4 sequence (P08637 other isoform, or with tags, fused parts or gaps)": "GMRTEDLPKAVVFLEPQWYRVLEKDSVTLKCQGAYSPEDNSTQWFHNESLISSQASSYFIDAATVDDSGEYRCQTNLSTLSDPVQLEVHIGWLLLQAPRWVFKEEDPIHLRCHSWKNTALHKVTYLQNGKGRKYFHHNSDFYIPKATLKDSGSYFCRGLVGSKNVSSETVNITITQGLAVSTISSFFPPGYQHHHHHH", "assay": "SPR (Biacore T200); receptor immobilized directly on CM5 chip, antibody as analyte at 4.7 µM"}, "[6]": {"molecular_target": "T5, Recombinant Human Fc gamma RIIIA/CD16a (V176F) Protein (R&D Systems), His-tagged (human, UniProt P08637 17-208)", "T5 construct": "no further substitution applied; also called human FcγRIIIa (V176F); hFcγRIIIa (V176F)", "T5 sequence (P08637 other isoform, or with tags, fused parts or gaps V176F V176F)": "as the sequence (P08637 other isoform, or with tags, fused parts or gaps) above, with V160F counted along it", "assay": "SPR (Biacore T200); receptor immobilized directly on CM5 chip, antibody as analyte at 4.7 µM"}, "[7]": {"molecular_target": "T6, Recombinant Human Fc gamma RIIIB/CD16b Protein (R&D Systems), His-tagged (human, UniProt O75015 20-208)", "T6 construct": "also called human FcγRIIIb; hFcγRIIIb", "T6 chain": "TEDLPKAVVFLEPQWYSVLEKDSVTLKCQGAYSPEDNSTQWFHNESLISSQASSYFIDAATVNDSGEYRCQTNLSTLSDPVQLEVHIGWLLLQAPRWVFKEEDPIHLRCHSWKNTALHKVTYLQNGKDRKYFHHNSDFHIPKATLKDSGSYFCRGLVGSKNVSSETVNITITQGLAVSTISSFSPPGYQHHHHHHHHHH", "assay": "SPR (Biacore T200); receptor immobilized directly on CM5 chip, antibody as analyte at 4.7 µM"}, "[8]": {"molecular_target": "T7, Recombinant Cynomolgus Fc gamma RIIA/CD32a Protein (R&D Systems), His-tagged (cynomolgus)", "T7 construct": "also called cynomolgus FcγRIIa; cFcγRIIa", "T7 chain": "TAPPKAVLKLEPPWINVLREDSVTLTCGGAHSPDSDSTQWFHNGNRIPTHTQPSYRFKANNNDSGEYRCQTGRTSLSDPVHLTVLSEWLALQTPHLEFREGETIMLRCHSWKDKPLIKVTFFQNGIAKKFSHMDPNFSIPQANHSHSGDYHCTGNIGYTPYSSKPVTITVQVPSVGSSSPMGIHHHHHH", "assay": "SPR (Biacore T200); receptor immobilized directly on CM5 chip, antibody as analyte at 4.7 µM"}, "[9]": {"molecular_target": "T8, Recombinant Cynomolgus Fc gamma RIIB protein (R&D Systems), His-tagged (cynomolgus)", "T8 construct": "also called cynomolgus FcγRIIb; cFcγRIIb", "T8 chain": "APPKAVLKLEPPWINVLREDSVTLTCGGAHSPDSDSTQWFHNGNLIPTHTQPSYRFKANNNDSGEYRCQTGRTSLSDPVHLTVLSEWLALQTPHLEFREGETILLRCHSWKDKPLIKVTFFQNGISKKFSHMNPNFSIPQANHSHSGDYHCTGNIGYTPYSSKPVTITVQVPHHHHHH", "assay": "SPR (Biacore T200); receptor immobilized directly on CM5 chip, antibody as analyte at 4.7 µM"}, "[10]": {"molecular_target": "T9, Recombinant Cynomolgus Fc gamma RIII/CD16 Protein (R&D Systems), His-tagged (cynomolgus, UniProt Q8SPW2 17-208)", "T9 construct": "also called cynomolgus FcγRIII; cFcγRIII", "T9 chain": "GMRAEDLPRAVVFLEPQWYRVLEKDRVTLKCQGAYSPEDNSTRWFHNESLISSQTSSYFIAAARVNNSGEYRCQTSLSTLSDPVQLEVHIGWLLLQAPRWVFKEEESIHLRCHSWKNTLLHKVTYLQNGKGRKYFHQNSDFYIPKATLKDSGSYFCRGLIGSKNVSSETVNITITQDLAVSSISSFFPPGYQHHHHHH", "assay": "SPR (Biacore T200); receptor immobilized directly on CM5 chip, antibody as analyte at 4.7 µM"}, "[11]": {"molecular_target": "T10, human FcRn (human neonatal Fc receptor large subunit p51 and beta2-microglobulin), biotinylated (human, UniProt P55899 24-297; P61769 21-119, biotinylated (site not stated))", "T10 sequence (P55899 24-297 limits assumed, chain 1 of 2)": "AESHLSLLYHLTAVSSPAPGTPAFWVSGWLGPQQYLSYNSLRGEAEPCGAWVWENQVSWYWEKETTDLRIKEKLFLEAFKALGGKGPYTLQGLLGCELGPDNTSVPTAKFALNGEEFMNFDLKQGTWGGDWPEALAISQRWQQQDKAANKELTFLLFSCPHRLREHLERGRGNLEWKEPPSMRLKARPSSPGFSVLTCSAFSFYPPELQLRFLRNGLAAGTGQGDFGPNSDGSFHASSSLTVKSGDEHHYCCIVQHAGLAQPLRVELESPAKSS", "T10 sequence (P61769 21-119 limits assumed, chain 2 of 2)": "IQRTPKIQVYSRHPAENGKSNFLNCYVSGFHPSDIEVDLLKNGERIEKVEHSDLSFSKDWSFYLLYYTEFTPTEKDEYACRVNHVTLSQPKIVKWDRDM", "assay": "BLI (Octet RED384), biotinylated FcRn on streptavidin biosensor, binding and dissociation at pH 6.0"}, "[12]": {"molecular_target": "T10, human FcRn (human neonatal Fc receptor …)", "assay": "BLI (Octet RED384), biotinylated FcRn on streptavidin biosensor, binding at pH 6.0, dissociation at pH 7.4"}},
  "data": [
    {"binder": "B1", "values": [
      {"measurement": "RU value relative to the LALA-DA variant", "setting": "[1]", "result": "~0.1", "unit": "fold"},
      {"measurement": "RU value relative to the other variants", "setting": "[2]", "result": "≤ 0.5", "unit": "fold"},
      {"measurement": "binding response (RU)", "setting": "[3]", "result": 8.8, "unit": "RU"},
      {"measurement": "binding response (RU)", "setting": "[4]", "result": 15, "unit": "RU"},
      {"measurement": "binding response (RU)", "setting": "[5]", "result": -2.7, "unit": "RU"},
      {"measurement": "binding response (RU)", "setting": "[6]", "result": -4.4, "unit": "RU"},
      {"measurement": "binding response (RU)", "setting": "[7]", "result": -0.3, "unit": "RU"},
      {"measurement": "binding response (RU)", "setting": "[8]", "result": 19, "unit": "RU"},
      {"measurement": "binding response (RU)", "setting": "[9]", "result": 89, "unit": "RU"},
      {"measurement": "binding response (RU)", "setting": "[10]", "result": 3.8, "unit": "RU"},
      {"measurement": "Kd", "setting": "[11]", "result": 5.8, "unit": "nM"},
      {"measurement": "koff", "setting": "[12]", "result": 2.2, "unit": "s⁻¹"}
    ]}
  ]
}
